Consider two proteins from PMC8812686 (Proceedings of the National Academy of Sciences of the …, 2022).

This series deals with the molecule itself. The series can be described thus: SEC.

B1: HCcmL, CcmL with a pentahistidine tag (Histag) inserted between D33 and G34 (natural protein, Thermosynechococcus elongatus BP-1)
chain: MKIARVCGTVTSTQKEDTLTGVKFLVLQYLGEDHHHHHGEFLPDYEVAADTVGAGQDEWVLVSRGSAARHIINGTDKPIDAAVVAIIDTVSRDNYLLYSKRTQY
B1: the “stoichiometry N” value is 5.

B2: CcmL, pentameric vertex protein of the β-carboxysome from Thermosynechococcus elongatus BP-1 (natural protein)
chain: MKIARVCGTVTSTQKEDTLTGVKFLVLQYLGEDGEFLPDYEVAADTVGAGQDEWVLVSRGSAARHIINGTDKPIDAAVVAIIDTVSRDNYLLYSKRTQY
On to B2, for which the “stoichiometry N” value turned out to be 5.
